What was measured:
Assay in all cases: cell-based or functional assay
[1] = molecular target: gut proteases of T. commodus (crude gut extract) (Teleogryllus commodus)
[2] = molecular target: gut proteases of A. infusa (crude gut extract) (Agrotis infusa)
[3] = molecular target: gut proteases of E. postvitiana (crude gut extract) (Epiphyas postvittana)
[4] = molecular target: gut proteases of sugar cane grub (crude gut extract)
[5] = molecular target: gut proteases of C. obliquana (crude gut extract) (Ctenopseustis obliquana)
[6] = molecular target: gut proteases of P. opercullela (crude gut extract) (Phthorimaea opercullela)
[7] = molecular target: gut proteases of C. rufifacies (crude gut extract) (Chrysomya rufifacies)
[8] = molecular target: gut proteases of P. octo (crude gut extract) (Planotortrix octo)
[9] = molecular target: gut proteases of W. cervinata (crude gut extract) (Wiseana cervinata)
[10] = molecular target: gut proteases of H. punctigera (crude gut extract) (Helicoverpa punctigera)
[11] = molecular target: gut proteases of H. armigera (crude gut extract) (Helicoverpa armigera)
[12] = molecular target: gut proteases of A. tasmaniae (crude gut extract) (Aphodius tasmaniae)
[13] = molecular target: gut proteases of L. serricata (crude gut extract) (Lucilla sericata)
[14] = molecular target: gut proteases of C. zealandica (crude gut extract) (Costelytra zealandica)
[15] = molecular target: gut proteases of S. litura (crude gut extract) (Spodoptera litura)

casein hydrolysis (% control) [1]: 35 % control
casein hydrolysis (% control) [2]: 40.2 % control
casein hydrolysis (% control) [3]: 45.4 % control
casein hydrolysis (% control) [4]: 43.9 % control
casein hydrolysis (% control) [5]: 49.1 % control
casein hydrolysis (% control) [6]: 100 % control
casein hydrolysis (% control) [7]: 37.8 % control
casein hydrolysis (% control) [8]: 67.2 % control
casein hydrolysis (% control) [9]: 82.9 % control
casein hydrolysis (% control) [10]: 29.3 % control
casein hydrolysis (% control) [11]: 32.7 % control
casein hydrolysis (% control) [12]: 34.2 % control
casein hydrolysis (% control) [13]: 100 % control
casein hydrolysis (% control) [14]: 54.7 % control
casein hydrolysis (% control) [15]: 33.6 % control
B1: C1, N. alata chymotrypsin inhibitor (peak 1 from HPLC) (peptide)
peptide: DRICTNCCAGTKGCKYFSDDGTFVCEGESDPRNPKACTLNCDPRIAYGVCPRS
